{"source": "patent US20040202659A1", "about": "(ASAT AG APPLIED SCIENCE AND TECHNOLOGY, published 2004)", "binders": {"B1": {"name": "AI-B14 (Fab, V domains shown)", "VH": "QVKLLESGGGVVQPGRSLRLSCAASGFTFSDYGMHWVRQAPGKGLEWVAAISYDGSNKYYADSVKGRFSISRDNSNNTLYLQMSTLRAEDTAVYFCARDSETAIAAAGRFDIWGQGTMVTVSS", "notes": "phab; also called A1-B14; AI-14"}, "B2": {"name": "AI-B17 (Fab, V domains shown)", "VH": "B1 VH", "notes": "phab; also called A1-B17"}, "B3": {"name": "AI-B18 (Fab, V domains shown)", "VH": "QVKLLESGAEVKKPGSSVMVSCKASGGTFSSHTISWVRQAPGQGLEWMGGITPIFGTVNYAQKFQGRVTITADEPTSTAYMELRSLTSDDSGIYYCAREDGTTVPSQPLEFWGQGTRVTVSS", "notes": "phab; also called A1-B18"}, "B4": {"name": "AI-B24 (Fab, V domains shown)", "VH": "QVKLLESGGGLVQPGGSLRLSCSASGFTFNKYAIHWVRQAPGKGLEYVSAISSNGGNTYYADSVKGRFTISRDNSKNTVYLQMSSLRAEDTAVYYCVRGSGSYLGYYFDYWGQGTLVTVSS", "VL": "VVTQPPSVSVAPRQTATITCGGYKIGSKSVHWYQQKPGQAPVLVVYEDSYRPSEIPERFSGSNSGNMATLTITGVEAGDEADYYCQVWDNTNDQTIFGGGTKLTVLR", "notes": "phab; also called A1-B24"}, "B5": {"name": "AI-B38 (Fab, V domains shown)", "VH": "QVKLLESGAEVKKPGASVKVSCKVSGYTLTELSMHWVRQAPGKGLEWMGGFDPEDGETIYAQKFQGRVTMTEDTSTDTAYMELSSLRSEDTAVYYCETGLRSYNYGRNLDYWGQGTLVTVSS", "notes": "phab; also called A1-B38"}, "B6": {"name": "AI-B34 (Fab, V domains shown)", "VH": "B3 VH", "notes": "phab; also called A1-B34"}, "B7": {"name": "AI-B40 (Fab, V domains shown)", "VH": "B3 VH", "notes": "phab; also called A1-B40"}}, "key": {"PDG-B [1]": {"molecular_target": "T1, PDG-B", "T1 construct": "human anti-GPIIb/IIIa Fab, as phab or as biotinylated recombinant Fab; lambda light chain; also called Group B phab clones; Group B antibody phab clones", "assay": "specificity assay"}, "PDG-A": {"molecular_target": "T2, PDG-A", "T2 construct": "lambda light chain; also called Group A phab clones; Group A autoantibody phab clones", "T2 sequence (VH, as listed by the source, chain 1 of 2)": "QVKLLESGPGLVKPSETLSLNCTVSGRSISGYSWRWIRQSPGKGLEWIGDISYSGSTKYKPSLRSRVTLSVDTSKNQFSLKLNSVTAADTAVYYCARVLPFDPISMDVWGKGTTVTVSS", "T2 sequence (VL, as listed by the source, chain 2 of 2)": "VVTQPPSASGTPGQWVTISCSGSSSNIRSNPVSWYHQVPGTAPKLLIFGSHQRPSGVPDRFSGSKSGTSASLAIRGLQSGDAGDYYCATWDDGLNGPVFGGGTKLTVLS", "assay": "specificity assay"}, "PDG-B [2]": {"molecular_target": "T1, PDG-B", "assay": "flow cytometry, biotinylated PDG-B on platelets with AI-B phab", "experimental": "This was determined by means of flow-cytometric analysis. […] 10,000 events were counted in a FACScan appliance and the mean value of the fluorescence (±SD) was recorded."}}, "data": [{"binder": "B1", "values": [{"measurement": "binding result", "setting": "PDG-B [1]", "value": "binds"}, {"measurement": "binding result", "setting": "PDG-A", "value": "no binding"}]}, {"binder": "B2", "values": [{"measurement": "binding result", "setting": "PDG-B [1]", "value": "binds"}, {"measurement": "binding result", "setting": "PDG-A", "value": "no binding"}]}, {"binder": "B3", "values": [{"measurement": "binding result", "setting": "PDG-A", "value": "no binding"}, {"measurement": "inhibition of the binding of PDG-B to platelets", "setting": "PDG-B [2]", "value": "> 60", "unit": "%"}]}, {"binder": "B4", "values": [{"measurement": "binding result", "setting": "PDG-A", "value": "no binding"}, {"measurement": "inhibition of the binding of PDG-B to platelets", "setting": "PDG-B [2]", "value": "> 60", "unit": "%"}]}, {"binder": "B5", "values": [{"measurement": "binding result", "setting": "PDG-A", "value": "no binding"}, {"measurement": "inhibition of the binding of PDG-B to platelets", "setting": "PDG-B [2]", "value": "> 60", "unit": "%"}]}, {"binder": "B6", "values": [{"measurement": "binding result", "setting": "PDG-A", "value": "no binding"}]}, {"binder": "B7", "values": [{"measurement": "binding result", "setting": "PDG-A", "value": "no binding"}]}]}
